The target in the experiment is T1, 重组GFAP蛋白 (人GFAP第292位至第432位氨基酸片段 + 组氨酸标签, 大肠杆菌表达) (human, UniProt P14136 292-432).
T1 construct: also called 重组GFAP蛋白片段; 免疫原; not shown: Histidine tag from vector pET28a
Kind of experiment: Indirect ELISA on coated recombinant GFAP protein. The affinity constant was calculated from the antibody concentration at half of the plateau OD450.

T1 sequence (P14136 292-432): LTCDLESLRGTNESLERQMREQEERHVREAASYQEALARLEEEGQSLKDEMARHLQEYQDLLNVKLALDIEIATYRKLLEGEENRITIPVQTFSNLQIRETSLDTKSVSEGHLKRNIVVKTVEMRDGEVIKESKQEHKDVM

B1: 抗GFAP蛋白单克隆抗体(10G1G11H7) (antibody, V domains shown)
VH: EVQLQQSGAELVKPGASVKLSCTASGFNIKDTYMHWVKQRPEQGLEWIGRIDPANGKTKYDPKFQGKATITADTSSNTAYLQLSSLTSEDTAVYYCARRGIMTTVPFAYWGQGTLVTVSA
VL: DIVMTQAAPSVPVTPGESVSISCRSSKSLLHSNGNTYLYWFLQRPGQSPQLLIYRMSNLTSGVPDRFSGSGSGTAFTLRISRVEAEDVGVYYCMQHLEYPFTFGGGTKLEIK
As for B1, the Ka was 6.53e+09 M⁻¹.

Source of the values: patent CN110903389A (FUZHOU MAIXIN BIOTECHNOLOGY DEV CO LTD, dated 2020).
